Results: US7868138B2, “Methods for generating polynucleotides having desired characteristics by iterative selection and recombination” (priority 1994, dated 2011)

Key:
CHO cells = assay: Fluorescence spectroscopy of CHO cells expressing GFP; type: cell-based, chinese hamster; settings: 2 mM sodium butyrate, 'wt' construct
Protocol: The wildtype and the cycle 2 and 3 mutant versions of the GFP gene were transferred into the eukaryotic expression vector Alpha+ (16) as an EcoRI-XbaI fragment. The plasmids were transfected into CHO cells by electroporation of 10^7 cells in 0.8 ml with 40 μg of plasmed at 400V and 250 μF. Transformants were selected using 1 mg/ml G418 for 10-12 days.
Improvements in autonomous characteristics such as self-folding can be tranferable to different cellular environments. After being selected in bacteria, the ‘cycle 3’ mutant GFP was transferred into the eukaryotic Alpha+ vector and expressed in chinese hamster ovary cells (CHO). […] FACS sorting confirmed that the average fluorescence signal of CHO cell clones expressing ‘cycle 3’ was 46-fold greater than cells expressing the ‘wt’ construct (FIG. 18B).

E. coli XL1-blue cells = assay: Minimum inhibitory concentration (MIC) of cefotaxime by plating on cefotaxime plates; type: cell-based
Protocol: The minimum inhibitory concentration (MIC) of cefotaxime on bacterial cells lacking a plasmid was determined by plating 10 μl of a 10^−2 dilution of an overnight bacterial culture (about 1000 cfu) of E. coli XL1-blue cells (Stratagene, San Diego Calif.) on plates with varying levels of cefotaxime (Sigma, St. Louis Mo.), followed by incubation for 24 hours at 37° C.
Growth on cefotaxime is sensitive to the density of cells, and therefore similar numbers of cells needed to be plated on each plate (obtained by plating on plain LB plates). Platings of 1000 cells were consistently performed.
Growth on cefotaxime is dependent on the cell density, requiring that all the MICs be standardized (in our case to about 1,000 cells per plate). […] The 5 largest colonies grown at […] were plated for single colonies twice, and the Sfi1 inserts were analyzed by restriction mapping of the colony PCR products.
After selection, the plasmid of selected clones was transferred back into wild-type E. coli XL1-blue cells (Stratagene, San Diego Calif.) to ensure that none of the measured drug resistance was due to chromosomal mutations.

Row | Molecule | increase of the fluorescence signal (CHO cells) | minimum inhibitory concentration of cefotaxime (E. coli XL1-blue cells; 24 hours at 37° C., about 1,000 cells per plate) | MIC (E. coli XL1-blue cells; cefotaxime, mutants in identical plasmid background pUC182Sfi, no literature source in table)
1 | CCCC(=O)[O-].[Na+] [sodium butyrate] | 4-8 fold |  | 
2 | TEM-1: wild-type bacterial TEM-1 betalactamase, gene on a pUC18 derivative (protein, UniProt P62593 24-286, looked up) Beta-lactamase TEM: HPETLVKVKDAEDQLGARVGYIELDLNSGKILESFRPEERFPMMSTFKVLLCGAVLSRVDAGQEQLGRRIHYSQNDLVEYSPVTEKHLTDGMTVRELCSAAITMSDNTAANLLLTTIGGPKELTAFLHNMGDHVTRLDRWEPELNEAIPNDERDTTMPAAMATTLRKLLTGELLTLASRQQLIDWMEADKVAGPLLRSALPAGWFIADKSGAGERGSRGIIAALGPDGKPSRIVVIYTTGSQATMDERNRQIAEIGASLIKHW |  | approximately 0.02 μg/ml | 0.02 µg/mL
